The record followed here is the Human Domainome abundance scans (Beltran et al. 2025).

The chains are these.
B1: Tudor domain-containing protein 3, residues 554 to 611; numbered along this chain, Q9H7E2 (parent)
chain: KMWKPGDECFALYWEDNKFYRAEVEALHSSGMTAVVKFIDYGNYEEVLLSNIKPIQTE

± gives the uncertainty stated by the source.

The variants in the data set derive from B1. In words: abundance fitness (aPCA) (normalised: wild type 0, dead -1); higher = more abundant; growth selection in yeast, the domain comes from the species named. Particulars: Homo sapiens.
Consider M32W, for which the abundance fitness is -0.137 ± 0.07. In the case of M32Y, the abundance fitness was 0.195 ± 0.12. In the case of M32C, the abundance fitness was -0.098 ± 0.082.

Turning to M32K, the abundance fitness was -0.165 ± 0.091.

With M32A, the abundance fitness was -0.036 ± 0.068. In the case of M32H, the abundance fitness turned out to be 0.086 ± 0.11.

Turning to M32Q, the abundance fitness came out at 0.046 ± 0.078.

As for M32D, the abundance fitness is -0.057 ± 0.097. Under M32G stands -0.031 ± 0.055. On to M32P, for which the abundance fitness is -0.266 ± 0.081. M32E: the abundance fitness was 0.009 ± 0.083.

As for M32R, the abundance fitness was -0.009 ± 0.055. M32V: the abundance fitness was -0.054 ± 0.055. Then M32S, with 0.02 ± 0.065. Under M32T stands 0.046 ± 0.075; under M32F, -0.005 ± 0.081.

As for M32L, the abundance fitness is -0.045 ± 0.057. Under M32I stands -0.24 ± 0.088; under M32N, 0.003 ± 0.091. Then S29W, with -0.368 ± 0.076; and S29Q, with -0.11 ± 0.1; and S29C, with -0.116 ± 0.079. Turning to S29P, the abundance fitness was -0.03 ± 0.088. As for S29V, the abundance fitness was 0.118 ± 0.064.

On to S29I, for which the abundance fitness was -0.05 ± 0.097. For S29F, the abundance fitness is -0.186 ± 0.1. As to S29Y, the abundance fitness was -0.061 ± 0.092.

Take S29G: the abundance fitness is -0.107 ± 0.057. Take S29D: the abundance fitness was found to be 0.014 ± 0.097. In the case of S29K, the abundance fitness is -0.028 ± 0.082.

Consider S29R, for which the abundance fitness is -0.133 ± 0.053. As for S29N, the abundance fitness was -0.062 ± 0.12. Take S29T: the abundance fitness was -0.012 ± 0.074. Then S29L, with -0.125 ± 0.06; and S29E, with -0.008 ± 0.081; and S29A, with 0.114 ± 0.075. With S29M, the abundance fitness was -0.009 ± 0.084.

S29H: the abundance fitness is -0.05 ± 0.14. As for T33L, the abundance fitness was -0.331 ± 0.065. Then T33M, with -0.246 ± 0.11. On to T33I, for which the abundance fitness is -0.276 ± 0.094.

T33W: the abundance fitness was -0.321 ± 0.071. As to T33C, the abundance fitness is -0.14 ± 0.067.

In the case of T33H, the abundance fitness was -0.126 ± 0.089.

For the variant T33R, the abundance fitness was -0.088 ± 0.052.

Take T33V: the abundance fitness is -0.232 ± 0.078.

On to T33A, for which the abundance fitness was -0.121 ± 0.075. In the case of T33E, the abundance fitness was -0.377 ± 0.092. In the case of T33S, the abundance fitness was 0.012 ± 0.059. Turning to T33P, the abundance fitness was -1.03 ± 0.14. Consider T33G, for which the abundance fitness was -0.444 ± 0.068. For the variant T33Y, the abundance fitness is -0.184 ± 0.087. As for T33Q, the abundance fitness was -0.287 ± 0.094. For T33D, the abundance fitness was -0.877 ± 0.15. As for V35I, the abundance fitness is -0.16 ± 0.13. For V35D, the abundance fitness was -0.426 ± 0.12. Consider V35A, for which the abundance fitness was -0.277 ± 0.074. Consider V35F, for which the abundance fitness was -0.186 ± 0.1. Turning to V35P, the abundance fitness is -0.973 ± 0.14. Consider V35K, for which the abundance fitness was 0.104 ± 0.082.

As to V35L, the abundance fitness was -0.011 ± 0.063. For V35T, the abundance fitness was 0.104 ± 0.069.

As to V35N, the abundance fitness was -0.211 ± 0.12. V35Q: the abundance fitness worked out at 0.058 ± 0.081. On to V35C, for which the abundance fitness is -0.162 ± 0.088.

Consider V35R, for which the abundance fitness was determined as 0.129 ± 0.054. V35W: the abundance fitness was -0.087 ± 0.069. As to V35E, the abundance fitness was -0.227 ± 0.087. As to V35S, the abundance fitness is -0.032 ± 0.071. Turning to V35G, the abundance fitness is -0.384 ± 0.057. With V35H, the abundance fitness was -0.403 ± 0.15. Under V35M stands -0.079 ± 0.083; under V35Y, -0.092 ± 0.1; under A34V, -0.078 ± 0.065. With A34C, the abundance fitness is -0.072 ± 0.091.

With A34F, the abundance fitness is -0.919 ± 0.21.

Consider A34R, for which the abundance fitness is -0.85 ± 0.088. On to A34L, for which the abundance fitness was -0.404 ± 0.074. Then A34Y, with -0.897 ± 0.29; and A34S, with -0.73 ± 0.093. Take A34D: the abundance fitness is -0.931 ± 0.13.

For the variant A34G, the abundance fitness was -0.413 ± 0.054. Take A34K: the abundance fitness is -0.646 ± 0.18.

On to A34T, for which the abundance fitness was -0.948 ± 0.17. On to A34I, for which the abundance fitness is -0.76 ± 0.18. With A34N, the abundance fitness is -0.781 ± 0.16.

In the case of A34E, the abundance fitness was -0.976 ± 0.12. A34H: the abundance fitness was -0.861 ± 0.23. In the case of A34Q, the abundance fitness was -0.575 ± 0.27.

With A34W, the abundance fitness was -0.882 ± 0.12. For A34P, the abundance fitness was -1.04 ± 0.28.

Take A34M: the abundance fitness was -0.358 ± 0.11. With H28Y, the abundance fitness is -0.401 ± 0.11. For the variant H28N, the abundance fitness is -0.006 ± 0.094. As for H28L, the abundance fitness was -0.087 ± 0.062.

For the variant H28G, the abundance fitness was 0.034 ± 0.055. Turning to H28S, the abundance fitness is -0.042 ± 0.066. With H28P, the abundance fitness was -0.001 ± 0.1. Then H28I, with -0.508 ± 0.15. Then H28D, with -0.144 ± 0.11. As for H28A, the abundance fitness was 0.024 ± 0.075.

As to H28R, the abundance fitness was -0.183 ± 0.054. Then H28E, with -0.159 ± 0.082; and H28W, with -0.871 ± 0.095; and H28F, with -0.619 ± 0.14. For the variant H28T, the abundance fitness is -0.065 ± 0.075. For H28Q, the abundance fitness is -0.088 ± 0.13. Under H28C stands -0.098 ± 0.077; under H28M, -0.118 ± 0.076. Consider G31F, for which the abundance fitness was -0.558 ± 0.12. G31L: the abundance fitness is -0.267 ± 0.075. In the case of G31S, the abundance fitness was -0.082 ± 0.062. On to G31Q, for which the abundance fitness is -0.043 ± 0.17. For G31D, the abundance fitness is -0.198 ± 0.083. Turning to G31W, the abundance fitness was -0.658 ± 0.099. As to G31M, the abundance fitness is -0.043 ± 0.11.

For the variant G31Y, the abundance fitness is -0.269 ± 0.13.

On to G31A, for which the abundance fitness came out at 0.015 ± 0.076.

For the variant G31K, the abundance fitness is -0.148 ± 0.1. Regarding G31H, the abundance fitness is -0.099 ± 0.088.

Turning to G31P, the abundance fitness is -0.48 ± 0.086. As for G31T, the abundance fitness came to 0.02 ± 0.09.

As to G31R, the abundance fitness was -0.033 ± 0.055. Consider G31N, for which the abundance fitness is -0.057 ± 0.14.

As for G31V, the abundance fitness was -0.45 ± 0.067. For the variant G31C, the abundance fitness is -0.12 ± 0.069. Under G31E stands -0.092 ± 0.093; under S30D, -0.179 ± 0.074. For S30M, the abundance fitness was -0.282 ± 0.098. As for S30Q, the abundance fitness is -0.254 ± 0.11. On to S30A, for which the abundance fitness was -0.192 ± 0.061. With S30L, the abundance fitness was -0.37 ± 0.073. Take S30Y: the abundance fitness was -0.463 ± 0.1. With S30I, the abundance fitness was -0.322 ± 0.12.

For the variant S30G, the abundance fitness was -0.132 ± 0.052.

Regarding S30C, the abundance fitness is -0.109 ± 0.089.

Turning to S30V, the abundance fitness is -0.501 ± 0.063. As for S30N, the abundance fitness was -0.04 ± 0.099. As for S30F, the abundance fitness was -0.435 ± 0.097. For S30P, the abundance fitness is -0.331 ± 0.094. With S30W, the abundance fitness was -0.462 ± 0.097.

Consider S30T, for which the abundance fitness is -0.119 ± 0.071.

With S30K, the abundance fitness is -0.172 ± 0.094.

Regarding S30E, the abundance fitness was -0.143 ± 0.081. Then L27M, with -0.181 ± 0.11. Under L27T stands -0.301 ± 0.12; under L27Y, -0.911 ± 0.18.

On to L27D, for which the abundance fitness is -0.871 ± 0.14. For L27F, the abundance fitness was -0.716 ± 0.14. Under L27V stands -0.064 ± 0.067; under L27Q, -1.13 ± 0.2; under L27C, -0.183 ± 0.087. As to L27R, the abundance fitness was -0.872 ± 0.078. As to L27S, the abundance fitness was -0.749 ± 0.1. L27I: the abundance fitness is -0.072 ± 0.11. Take L27W: the abundance fitness was -0.76 ± 0.1.

In the case of L27G, the abundance fitness was -0.974 ± 0.076. With L27P, the abundance fitness was -0.973 ± 0.17.

L27E: the abundance fitness is -0.913 ± 0.11.

For the variant L27N, the abundance fitness was -0.879 ± 0.18. As for L27H, the abundance fitness was -0.675 ± 0.18.

Regarding V36A, the abundance fitness is -0.92 ± 0.097. Regarding V36C, the abundance fitness is -0.584 ± 0.13.

For V36H, the abundance fitness is -0.838 ± 0.32. As for V36D, the abundance fitness is -0.996 ± 0.15.

V36G: the abundance fitness is -0.833 ± 0.076. Under V36F stands -0.964 ± 0.2.
